From patent US20230279115A1 (MABWELL SHANGHAI BIOSCIENCE, published 2023)

Columns and labels:
[1] = target: T1, human PD-L1 recombinant protein (human, UniProt Q9NZQ7 19-238); assay: BLI (method per paragraph 89); target not given, taken as human PD-L1 recombinant protein
T1 construct: also called recombinant PD-L1 protein; recombinant PD-L1

[2] = target: T1, human PD-L1 recombinant protein; assay: BLI, human PD-L1 recombinant protein
[3] = target: T2, PD-L1-mFc (human, UniProt Q9NZQ7 19-238); assay: blocking ELISA: PD-1-hFc coated at 0.5 µg/mL, 0.5 µg/mL PD-L1-mFc co-incubated with the titrated binder (50 nM, 1.5-fold, 10 points), detection with HRP-anti-mouse Fc; blocked partner PD-1-hFc
T2 construct: range 19-238; not shown: mouse Fc (mFc)
Experimental: Human PD-1-hFc (PD-1 Sequence No. NP_005009.2, 21aa-167aa) was diluted with PBS to 0.5 µg/mL, coated on an ELISA plate overnight at 4° C. Then the plate was blocked with 5% BSA for 60 min at 37° C. in a thermostatic incubator. Gradient dilutions of hzF2 and control antibody KN035, and an isotype control NC-hIgG1 (initial working concentration of 50 nM, 1.5-fold dilution to 10 concentration gradients), were added, then PD-L1-mFc (PD-L1 Sequence No. NP_054862.1, 19aa-238aa) was added at a working concentration of 0.5 µg/mL, co-incubated and reacted in a thermostatic incubator at 37° C. for 60 min. The plate was washed 4 times with PBST; then added 1:5000 diluted HRP-anti-mouse Fc (Cat.:115-035-071, Jackson Immuno Research) thereto, reacted for 45 min, and added TMB (Beijing Taitianhe Biology, Cat.: ME142) substrate to develop color for 15 min. After adding 2 M HCl to stop the reaction, the plate was read and recorded about the absorbance value of A450nm-630nm of the well plate by a reader taking 630 nm as the reference wavelength, and 450 nm as the detection wavelength.

[4] = target: T3, monkey PD-L1 recombinant protein (monkey); assay: BLI (Octet QKe), antibody captured on AHC probe, antigen 60 nM
T3 construct: also called recombinant monkey PD-L1
Experimental: (§1) The Octet QKe system instrument from Fortebio Company was used to determine whether chF2 could bind to recombinant monkey PD-L1 and recombinant murine PD-L1 by using the capture antibody (AHC) biological probe of anti-human antibody Fc segment to capture the Fc segment of the antibody. During the measurement, chF2 was diluted to 4 µg/mL with PBS buffer and flowed over the surface of AHC probe (PALL, Cat.: 18-0015) for 120 s. The monkey PD-L1 recombinant protein and the murine PD-L1 recombinant protein were used as mobile phases to interact with the antibodies captured on the surface of the chip. The PD-L1 recombinant protein concentration was 60 nM. The binding time of each antigen was 300 s, and the final dissociation time was 300 s.

[5] = target: T1, human PD-L1 recombinant protein; assay: BLI (Octet QKe), antibody captured on AHC probe, PD-L1 60 nM
Experimental: Using the Octet QKe system instrument from Fortebio Company, the ability of chF2 to bind corresponding recombinant antigen was determined by using the capture antibody (AHC) biological probe against the Fc fragment of the human antibody to capture the Fc fragment of the antibody. During the measurement, chF2 was diluted with PBS buffer to 4 µg/mL, and flowed over the surface of AHC probe (Cat.: 18-0015, PALL) for 120 s. A human PD-L1 recombinant protein was used as the mobile phase to interact with the antibody captured on the chip surface. The recombinant PD-L1 protein concentration was 60 nM. The binding time for each antigen was 300 s, and the final dissociation time was 300 s.

[6] = target: T4, human PD-L1 expressed on the cell surface (human, UniProt Q9NZQ7 19-290); assay: cell-based or functional assay
[7] = target: T4, human PD-L1 expressed on the cell …; assay: flow cytometry on CHO-PD-L1-CD3L cells, FITC anti-human Fc
Experimental: Cells (CHO-PD-L1-CD3L cells) were collected after centrifugation, divided into 5×10⁵ cells/sample/100 µL. Gradient diluted single variable domain antibody was added to the cells at a final concentration of 66 nM as the highest concentration, 3-fold serial dilution to make 10 gradients; then incubated on ice for 2h. The cells were washed twice with ice-cold PBS (containing 0.05% Tween). FITC-labeled anti-human Fc secondary antibody (Cat.: F9512, Sigma) was added, and incubated on ice for 1h. The cells were washed twice with ice-cold PBS (containing 0.05% Tween), resuspended in 200 µL of Flow Cytometry Buffer, and the mean fluorescence intensity (MFI) of the cells was detected by flow cytometer (Model B49007AD, SNAW31211, BECKMAN COULTER).

[8] = target: T5, murine PD-L1 recombinant protein (murine, UniProt Q9EP73 19-238, limits assumed); assay: BLI (Octet QKe), antibody captured on AHC probe, antigen as mobile phase
T5 construct: also called recombinant murine PD-L1
Experimental: as §1

T1 sequence (Q9NZQ7 19-238 limits assumed): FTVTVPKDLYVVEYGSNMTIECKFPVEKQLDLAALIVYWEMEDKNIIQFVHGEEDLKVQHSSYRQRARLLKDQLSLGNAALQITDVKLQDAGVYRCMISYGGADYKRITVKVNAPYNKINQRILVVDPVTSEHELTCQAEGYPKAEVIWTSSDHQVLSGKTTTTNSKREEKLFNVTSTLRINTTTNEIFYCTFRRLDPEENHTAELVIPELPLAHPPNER
T4 sequence (Q9NZQ7 19-290): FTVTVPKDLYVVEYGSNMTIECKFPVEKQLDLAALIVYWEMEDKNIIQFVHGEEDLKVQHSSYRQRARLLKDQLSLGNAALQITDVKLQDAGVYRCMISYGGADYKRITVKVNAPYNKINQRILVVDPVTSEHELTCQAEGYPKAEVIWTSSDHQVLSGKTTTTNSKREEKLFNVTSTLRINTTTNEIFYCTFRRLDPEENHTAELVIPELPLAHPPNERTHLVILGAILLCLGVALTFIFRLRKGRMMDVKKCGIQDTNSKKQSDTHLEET
T2 sequence (Q9NZQ7 19-238 limits assumed): as the sequence (Q9NZQ7 19-238 limits assumed) above
T5 sequence (Q9EP73 19-238 limits assumed): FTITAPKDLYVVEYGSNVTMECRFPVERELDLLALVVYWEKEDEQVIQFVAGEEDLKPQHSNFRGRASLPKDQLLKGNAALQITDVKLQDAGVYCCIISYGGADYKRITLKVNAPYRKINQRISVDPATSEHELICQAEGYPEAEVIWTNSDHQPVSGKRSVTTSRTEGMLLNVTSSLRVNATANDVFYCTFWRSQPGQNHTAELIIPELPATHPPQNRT

| Binder | Kd [1] | Kd [2] | koff [2] | kon [2] | also measured |
| --- | --- | --- | --- | --- | --- |
| hzF2-m9 (VHH, also called humanized single variable domain antibody hzF2-m9) VHH: EVQLVESGGGLVQPGGSLRLSCAASRDSDEGASCMGWFRQAPGKEREGVAIIFNAGERTDYGDSVKGRFTISRDNAKNTLYLQMNSLRAEDTAVYYCATVWCGSWVARSWGQGTLVTVSS | 1.34 nM | 1.34 nM | 0.000434 s⁻¹ | 324000 M⁻¹ s⁻¹ |  |
| hzF2-m15 (VHH, Framework 2 is KEREG; also called humanized single variable domain antibody hzF2-m15) VHH: EVQLVESGGGLVQPGGSLRLSCAASRDSDEGASCMGWFRQAPGKEREGVAIIFNVGERTDYGDSVKGRFTISRDNAKNTLYLQMNSLRAEDTAVYYCATVFCGSYVARSWGQGTLVTVSS | 4.75 nM |  |  |  |  |
| hzF2-m2 (VHH, The parent hzF2 is a VHH-human IgG1 Fc fusion; also called humanized single variable domain antibody hzF2-m2) VHH: EVQLVESGGGLVQPGGSLRLSCAASGDSDDGASCMGWFRQAPGKGLEGVAIIFNAGERTDYGDSVKGRFTISRDNAKNTLYLQMNSLRAEDTAVYYCATVWCGSWVARSWGQGTLVTVSS | 1.26 nM | 1.26 nM | 0.000709 s⁻¹ | 562000 M⁻¹ s⁻¹ |  |
| hzF2-m14 (VHH, Framework 2 is KEREG; also called humanized single variable domain antibody hzF2-m14) VHH: EVQLVESGGGLVQPGGSLRLSCAASRDSDEGASCMGWFRQAPGKEREGVAIIFNVGERTDYGDSVKGRFTISRDNAKNTLYLQMNSLRAEDTAVYYCATVYCGSYVARSWGQGTLVTVSS | 3.81 nM |  |  |  |  |
| hzF2-m11 (VHH, Framework 2 is KEREG; also called humanized single variable domain antibody hzF2-m11) VHH: EVQLVESGGGLVQPGGSLRLSCAASRDSDDGASCMGWFRQAPGKEREGVAIIFNAGERTDYGDSVKGRFTISRDNAKNTLYLQMNSLRAEDTAVYYCATVYCGSYVARSWGQGTLVTVSS | 3.24 nM |  |  |  |  |
| hzF2-m12 (VHH, Framework 2 is KEREG; also called humanized single variable domain antibody hzF2-m12) VHH: EVQLVESGGGLVQPGGSLRLSCAASRDSDEGASCMGWFRQAPGKEREGVAIIFNVGERTDYGDSVKGRFTISRDNAKNTLYLQMNSLRAEDTAVYYCATVWCGSWVARSWGQGTLVTVSS | 1.54 nM |  |  |  |  |
| KN035 (fusion protein of the KN035 variable region and Fc) (Fc fusion, Built by the same strategy as chF2; also called Envafolimab; control antibody; not shown: human Fc (IgG1, hFc) from the same expression vector and strategy as chF2) QVQLVESGGGLVQPGGSLRLSCAASGKMSSRRCMAWFRQAPGKERERVAKLLTTSGSTYLADSVKGRFTISRDNSKNTVYLQMNSLRAEDTAVYYCAADSFEDPTCTLVTSSGAFQYWGQGTLVTVSS |  |  |  |  | IC50 [3]: 8.1 nM; Kd [4]: 1.32 nM; koff [4]: 0.000281 s⁻¹; kon [4]: 213000 M⁻¹ s⁻¹; Kd [5]: 1.5 nM; koff [5]: 0.00035 s⁻¹; kon [5]: 233000 M⁻¹ s⁻¹; Reporter Gene Assay (Jurkat-PD1-NFAT cells and CHO-PD-L1-CD3L cells), luciferase RLU, EC50 [6]: 4.9 nM; EC50 [7]: 1.27 nM; binding result [8]: no binding (tested: 60 nM) |

Continued, in another order:

| Kd [1] | Kd [2] | koff [2] | kon [2] | Binder | also measured |
| --- | --- | --- | --- | --- | --- |
| 9.36 nM | 9.36 nM | 0.0065 s⁻¹ | 695000 M⁻¹ s⁻¹ | hzF2-m4 (VHH, The parent hzF2 is a VHH-human IgG1 Fc fusion; also called humanized single variable domain antibody hzF2-m4) VHH: EVQLVESGGGLVQPGGSLRLSCAASRDSNDGASCMGWFRQAPGKGLEGVAIIFNAGERTDYGDSVKGRFTISRDNAKNTLYLQMNSLRAEDTAVYYCATVWCGSWVARSWGQGTLVTVSS |  |
| 7.8 nM | 7.8 nM | 0.00487 s⁻¹ | 624000 M⁻¹ s⁻¹ | hzF2-m3 (VHH, The parent hzF2 is a VHH-human IgG1 Fc fusion; also called humanized single variable domain antibody hzF2-m3) VHH: EVQLVESGGGLVQPGGSLRLSCAASRDSSSGASCMGWFRQAPGKGLEGVAIIFNAGERTDYGDSVKGRFTISRDNAKNTLYLQMNSLRAEDTAVYYCATVWCGSWVARSWGQGTLVTVSS |  |
| 4.31 nM |  |  |  | hzF2-m10 (VHH, Framework 2 is KEREG; also called humanized single variable domain antibody hzF2-m10) VHH: EVQLVESGGGLVQPGGSLRLSCAASRDSDDGASCMGWFRQAPGKEREGVAIIFNAGERTDYGDSVKGRFTISRDNAKNTLYLQMNSLRAEDTAVYYCATVYCGSWVARSWGQGTLVTVSS |  |
| 3.18 nM |  |  |  | hzF2-m16 (VHH, Framework 2 is KEREG; also called humanized single variable domain antibody hzF2-m16) VHH: EVQLVESGGGLVQPGGSLRLSCAASRDSDEGASCMGWFRQAPGKEREGVAIIFNVGERTDYGDSVKGRFTISRDNAKNTLYLQMNSLRAEDTAVYYCATVFCGSFVARSWGQGTLVTVSS |  |
| 4.26 nM |  |  |  | hzF2-m13 (VHH, Framework 2 is KEREG; also called humanized single variable domain antibody hzF2-m13) VHH: EVQLVESGGGLVQPGGSLRLSCAASRDSDDGASCMGWFRQAPGKEREGVAIIFNAGERTDYGDSVKGRFTISRDNAKNTLYLQMNSLRAEDTAVYYCATVFCGSFVARSWGQGTLVTVSS |  |
| 2.8 nM | 2.8 nM | 0.0019 s⁻¹ | 679000 M⁻¹ s⁻¹ | hzF2-m1 (VHH, The parent hzF2 is a VHH-human IgG1 Fc fusion; also called humanized single variable domain antibody hzF2-m1) VHH: EVQLVESGGGLVQPGGSLRLSCAASRDSDDGASSMGWFRQAPGKGLEGVAIIFNAGERTDYGDSVKGRFTISRDNAKNTLYLQMNSLRAEDTAVYYCATVWSGSWVARSWGQGTLVTVSS |  |
| 4.59 nM | 4.59 nM | 0.00157 s⁻¹ | 341000 M⁻¹ s⁻¹ | hzF2-m7 (VHH, The parent hzF2 is a VHH-human IgG1 Fc fusion; also called humanized single variable domain antibody hzF2-m7) VHH: EVQLVESGGGLVQPGGSLRLSCAASRDSDDSASCMGWFRQAPGKGLEGVAIIFNAGERTDYGDSVKGRFTISRDNAKNTLYLQMNSLRAEDTAVYYCATVWCGSWVARSWGQGTLVTVSS |  |
| 1.18 nM | 1.18 nM | 0.000419 s⁻¹ | 356000 M⁻¹ s⁻¹ | hzF2-m8 (VHH, also called humanized single variable domain antibody hzF2-m8) VHH: EVQLVESGGGLVQPGGSLRLSCAASRDSDDGASCMGWFRQAPGKEREGVAIIFNVGERTDYGDSVKGRFTISRDNAKNTLYLQMNSLRAEDTAVYYCATVWCGSWVARSWGQGTLVTVSS |  |
